Assay in all cases: cryo-EM structure; endogenous human Pol III purified from HeLa POLR1C-GFP cells, not cross-linked, apo, 4.0 Å
Holding throughout (settings): both partners purified

Experiment [1] concerns the target RPABC1, subunit of purified human Pol III (human (endogenous in HeLa), UniProt P19388 1-210).
For experiment [2], the target named is T1, RPC8, stalk subunit of purified human Pol III (human (endogenous in HeLa), UniProt Q9Y535 1-204).
T1 construct: RPC8, stalk subunit of RNA polymerase III, human, endogenous; source: endogenous, HeLa, purified within Pol III
T1 sequence (looked up): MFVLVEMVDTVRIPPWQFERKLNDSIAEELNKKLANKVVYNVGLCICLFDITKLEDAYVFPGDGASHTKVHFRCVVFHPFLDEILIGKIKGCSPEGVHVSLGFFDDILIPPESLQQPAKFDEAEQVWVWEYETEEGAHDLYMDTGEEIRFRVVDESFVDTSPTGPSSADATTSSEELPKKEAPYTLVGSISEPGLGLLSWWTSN

Experiment [3] deals with T2, RPC5, subunit of purified human Pol III (human (endogenous in HeLa), UniProt Q9NVU0 1-708).
T2 construct: RPC5, subunit of the TFIIF-like RPC4/5 heterodimer of RNA polymerase III, human, endogenous; the C-terminal extension (RPC5EXT) was not visible in the EM map; also called POLR3E; source: endogenous, HeLa, purified within Pol III
T2 sequence (looked up): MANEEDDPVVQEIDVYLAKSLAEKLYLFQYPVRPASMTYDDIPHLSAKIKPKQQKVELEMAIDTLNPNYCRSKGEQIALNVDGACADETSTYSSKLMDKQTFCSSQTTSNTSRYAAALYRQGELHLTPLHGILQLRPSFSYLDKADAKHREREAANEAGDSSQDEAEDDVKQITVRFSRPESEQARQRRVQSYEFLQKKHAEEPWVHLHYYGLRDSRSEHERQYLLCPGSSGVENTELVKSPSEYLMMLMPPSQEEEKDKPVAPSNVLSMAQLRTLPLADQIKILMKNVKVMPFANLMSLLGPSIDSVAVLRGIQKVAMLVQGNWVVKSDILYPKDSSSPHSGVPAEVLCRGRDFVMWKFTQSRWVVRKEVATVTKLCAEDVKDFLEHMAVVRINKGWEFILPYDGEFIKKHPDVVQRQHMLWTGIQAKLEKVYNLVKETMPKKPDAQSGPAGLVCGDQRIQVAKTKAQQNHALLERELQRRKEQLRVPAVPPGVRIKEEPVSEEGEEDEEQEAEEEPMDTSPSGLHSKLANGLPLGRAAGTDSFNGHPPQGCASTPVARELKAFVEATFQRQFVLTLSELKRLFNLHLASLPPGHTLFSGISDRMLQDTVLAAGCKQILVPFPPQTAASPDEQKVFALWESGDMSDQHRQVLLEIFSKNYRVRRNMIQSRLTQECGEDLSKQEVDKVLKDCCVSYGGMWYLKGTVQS

B1: RPC1, largest subunit of purified human Pol III (natural protein)
chain: MVKEQFRETDVAKKISHICFGMKSPEEMRQQAHIQVVSKNLYSQDNQHAPLLYGVLDHRMGTSEKDRPCETCGKNLADCLGHYGYIDLELPCFHVGYFRAVIGILQMICKTCCHIMLSQEEKKQFLDYLKRPGLTYLQKRGLKKKISDKCRKKNICHHCGAFNGTVKKCGLLKIIHEKYKTNKKVVDPIVSNFLQSFETAIEHNKEVEPLLGRAQENLNPLVVLNLFKRIPAEDVPLLLMNPEAGKPSDLILTRLLVPPLCIRPSVVSDLKSGTNEDDLTMKLTEIIFLNDVIKKHRISGAKTQMIMEDWDFLQLQCALYINSELSGIPLNMAPKKWTRGFVQRLKGKQGRFRGNLSGKRVDFSGRTVISPDPNLRIDEVAVPVHVAKILTFPEKVNKANINFLRKLVQNGPEVHPGANFIQQRHTQMKRFLKYGNREKMAQELKYGDIVERHLIDGDVVLFNRQPSLHKLSIMAHLARVKPHRTFRFNECVCTPYNADFDGDEMNLHLPQTEEAKAEALVLMGTKANLVTPRNGEPLIAAIQDFLTGAYLLTLKDTFFDRAKACQIIASILVGKDEKIKVRLPPPTILKPVTLWTGKQIFSVILRPSDDNPVRANLRTKGKQYCGKGEDLCANDSYVTIQNSELMSGSMDKGTLGSGSKNNIFYILLRDWGQNEAADAMSRLARLAPVYLSNRGFSIGIGDVTPGQGLLKAKYELLNAGYKKCDEYIEALNTGKLQQQPGCTAEETLEALILKELSVIRDHAGSACLRELDKSNSPLTMALCGSKGSFINISQMIACVGQQAISGSRVPDGFENRSLPHFEKHSKLPAAKGFVANSFYSGLTPTEFFFHTMAGREGLVDTAVKTAETGYMQRRLVKSLEDLCSQYDLTVRSSTGDIIQFIYGGDGLDPAAMEGKDEPLEFKRVLDNIKAVFPCPSEPALSKNELILTTESIMKKSEFLCCQDSFLQEIKKFIKGVSEKIKKTRDKYGINDNGTTEPRVLYQLDRITPTQVEKFLETCRDKYMRAQMEPGSAVGALCAQSIGEPGTQMTLKTFHFAGVASMNITLGVPRIKEIINASKAISTPIITAQLDKDDDADYARLVKGRIEKTLLGEISEYIEEVFLPDDCFILVKLSLERIRLLRLEVNAETVRYSICTSKLRVKPGDVAVHGEAVVCVTPRENSKSSMYYVLQFLKEDLPKVVVQGIPEVSRAVIHIDEQSGKEKYKLLVEGDNLRAVMATHGVKGTRTTSNNTYEVEKTLGIEAARTTIINEIQYTMVNHGMSIDRRHVMLLSDLMTYKGEVLGITRFGLAKMKESVLMLASFEKTADHLFDAAYFGQKDSVCGVSECIIMGIPMNIGTGLFKLLHKADRDPNPPKRPLIFDTNEFHIPLVT
notes: RPC1, largest subunit of RNA polymerase III, human, endogenous; also called POLR3A; source: endogenous, HeLa, purified within Pol III
Turning to B1, the binding result in experiment [1] is reported as “binds”.

B2: RPC9, stalk subunit of purified human Pol III (natural protein)
chain: not shown
notes: RPC9, stalk subunit of RNA polymerase III, human, endogenous; source: endogenous, HeLa, purified within Pol III
Consider B2, for which the binding result in experiment [2] is “binds”.

B3: RPC4, subunit of purified human Pol III (natural protein, human (endogenous in HeLa), UniProt P05423 1-398, looked up)
chain: MSEGNAAGEPSTPGGPRPLLTGARGLIGRRPAPPLTPGRLPSIRSRDLTLGGVKKKTFTPNIISRKIKEEPKEEVTVKKEKRERDRDRQREGHGRGRGRPEVIQSHSIFEQGPAEMMKKKGNWDKTVDVSDMGPSHIINIKKEKRETDEETKQILRMLEKDDFLDDPGLRNDTRNMPVQLPLAHSGWLFKEENDEPDVKPWLAGPKEEDMEVDIPAVKVKEEPRDEEEEAKMKAPPKAARKTPGLPKDVSVAELLRELSLTKEEELLFLQLPDTLPGQPPTQDIKPIKTEVQGEDGQVVLIKQEKDREAKLAENACTLADLTEGQVGKLLIRKSGRVQLLLGKVTLDVTMGTACSFLQELVSVGLGDSRTGEMTVLGHVKHKLVCSPDFESLLDHKHR
notes: RPC4, subunit of the TFIIF-like RPC4/5 heterodimer of RNA polymerase III, human, endogenous; also called POLR3D; source: endogenous, HeLa, purified within Pol III
Turning to B3, the binding result in experiment [3] was “binds”.

The record behind these values is publication PMC7747717 (Nature Communications, 2020).
